Data reported in patent US20020187514A1 (priority 1999, published 2002).

Tests used:
[1] = target: Epidermal Growth Factor, EGF; experiment: Epidermal Growth Factor, EGF; [125I]EGF; type: binding; settings: reference compound, QA/QC; read-out: Ref Kj
Complement C5a = Complement C5a (Homo sapiens, UniProt P21730); experiment: Complement C5a (Human); [125I]BH-rC5a; type: binding; settings: reference compound, QA/QC; read-out: Ref Kj
Chain of Complement C5a (P21730 whole entry): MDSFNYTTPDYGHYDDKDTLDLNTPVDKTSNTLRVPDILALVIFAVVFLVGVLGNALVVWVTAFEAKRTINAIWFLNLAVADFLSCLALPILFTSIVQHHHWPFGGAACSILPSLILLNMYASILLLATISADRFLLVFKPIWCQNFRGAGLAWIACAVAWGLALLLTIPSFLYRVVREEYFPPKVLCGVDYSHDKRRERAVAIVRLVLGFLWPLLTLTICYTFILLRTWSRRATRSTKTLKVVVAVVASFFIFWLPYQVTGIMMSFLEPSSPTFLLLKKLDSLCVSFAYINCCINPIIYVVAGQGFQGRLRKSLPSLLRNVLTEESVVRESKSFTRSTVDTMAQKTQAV

B1: EGF: reference compound, Epidermal Growth Factor assay (protein, UniProt P01133 23-1207, looked up)
Pro-epidermal growth factor: PQHWSCPEGTLAGNGNSTCVGPAPFLIFSHGNSIFRIDTEGTNYEQLVVDAGVSVIMDFHYNEKRIYWVDLERQLLQRVFLNGSRQERVCNIEKNVSGMAINWINEEVIWSNQQEGIITVTDMKGNNSHILLSALKYPANVAVDPVERFIFWSSEVAGSLYRADLDGVGVKALLETSEKITAVSLDVLDKRLFWIQYNREGSNSLICSCDYDGGSVHISKHPTQHNLFAMSLFGDRIFYSTWKMKTIWIANKHTGKDMVRINLHSSFVPLGELKVVHPLAQPKAEDDTWEPEQKLCKLRKGNCSSTVCGQDLQSHLCMCAEGYALSRDRKYCEDVNECAFWNHGCTLGCKNTPGSYYCTCPVGFVLLPDGKRCHQLVSCPRNVSECSHDCVLTSEGPLCFCPEGSVLERDGKTCSGCSSPDNGGCSQLCVPLSPVSWECDCFPGYDLQLDEKSCAASGPQPFLLFANSQDIRHMHFDGTDYGTLLSQQMGMVYALDHDPVENKIYFAHTALKWIERANMDGSQRERLIEEGVDVPEGLAVDWIGRRFYWTDRGKSLIGRSDLNGKRSKIITKENISQPRGIAVHPMAKRLFWTDTGINPRIESSSLQGLGRLVIASSDLIWPSGITIDFLTDKLYWCDAKQSVIEMANLDGSKRRRLTQNDVGHPFAVAVFEDYVWFSDWAMPSVMRVNKRTGKDRVRLQGSMLKPSSLVVVHPLAKPGADPCLYQNGGCEHICKKRLGTAWCSCREGFMKASDGKTCLALDGHQLLAGGEVDLKNQVTPLDILSKTRVSEDNITESQHMLVAEIMVSDQDDCAPVGCSMYARCISEGEDATCQCLKGFAGDGKLCSDIDECEMGVPVCPPASSKCINTEGGYVCRCSEGYQGDGIHCLDIDECQLGEHSCGENASCTNTEGGYTCMCAGRLSEPGLICPDSTPPPHLREDDHHYSVRNSDSECPLSHDGYCLHDGVCMYIEALDKYACNCVVGYIGERCQYRDLKWWELRHAGHGQQQKVIVVAVCVVVLVMLLLLSLWGAHYYRTQKLLSKNPKNPYEESSRDVRSRRPADTEDGMSSCPQPWFVVIKEHQDLKNGGQPVAGEDGQAADGSMQPTSWRQEPQLCGMGTEQGCWIPVSSDKGSCPQVMERSFHMPSYGTQTLEGGVEKPHSLLSANPLWQQRALDPPHQMELTQ
modifications: Pro-epidermal growth factor
B1 was tested. Which Ki [1] did it give?
The Ki was 3.2 nM.

B2: rC5a, Human: reference compound, Complement C5a assay (protein, UniProt P01031 678-751, looked up)
C5a anaphylatoxin: TLQKKIEEIAAKYKHSVVKKCCYDGACVNNDETCEQRAARISLGPRCIKAFTECCVVASQLRANISHKDMQLGR
modifications: C5a anaphylatoxin
How did the Ki (Complement C5a) turn out when B2 was run?
Its Ki is 0.619 nM.
